Assay results taken from patent publication US20100221240A1, “Chemically Modified Peptide Analogs” (FRAUNHOFER-GESELLSCHAFT ZUR FORDERUNG DER ANGEWANDTEN …, priority 2004, published 2010).

Assays:
[1] = Nyholm B. et al. 2001; cited from earlier work
[2] = Sedimentation test (solubility; BCA protein determination of pellet and supernatant); format: physicochemical; conditions: pH 7.4
Description: a) The sedimentation test was used to investigate the solubility of the analogs compared to IAPP. The quantity of precipitated or soluble peptide was determined as a function of time. In one typical experiment, first a peptide solution at a given concentration (1, 10, or 100 μM) in 10 mM sodium phosphate buffer, pH 7.4 was prepared. Aliquots of this solution were centrifuged at specified times (20200 g, 20 min), and precipitated protein in the pellet and supernatant was quantified using the bicinchonic acid (BCA) protein determination assay. FIG. 1 illustrates several results from this test. […] After 20 h IAPP was completely precipitated; in contrast, the N-methylated IAPP-LA [sic; IAPP-AL], IAPP-GI, and IAPP-AF [sic; IAPP-FA] analogs remained soluble over 14 days, even at a concentration of 100 μM. IAPP completely precipitated after only 2 h under the latter-referenced conditions (100 μM).

[3] = molecular target: T1, IAPP receptor on MCF-7 cells (Homo sapiens, UniProt P30988); assay: Stability in solution: preservation of AC activation potential (hormonal activity) on storage; format: cell-based; conditions: 250 μM or 1 mg/mL, sodium phosphate pH 7.4, RT, 4 days; 1 μM end concentration on cells
T1 construct: Specific IAPP receptors are expressed in the MCF-7 cell line; endogenous in cells; host or cells: MCF-7 (human breast cancer cells)
T1 sequence (P30988 25-474): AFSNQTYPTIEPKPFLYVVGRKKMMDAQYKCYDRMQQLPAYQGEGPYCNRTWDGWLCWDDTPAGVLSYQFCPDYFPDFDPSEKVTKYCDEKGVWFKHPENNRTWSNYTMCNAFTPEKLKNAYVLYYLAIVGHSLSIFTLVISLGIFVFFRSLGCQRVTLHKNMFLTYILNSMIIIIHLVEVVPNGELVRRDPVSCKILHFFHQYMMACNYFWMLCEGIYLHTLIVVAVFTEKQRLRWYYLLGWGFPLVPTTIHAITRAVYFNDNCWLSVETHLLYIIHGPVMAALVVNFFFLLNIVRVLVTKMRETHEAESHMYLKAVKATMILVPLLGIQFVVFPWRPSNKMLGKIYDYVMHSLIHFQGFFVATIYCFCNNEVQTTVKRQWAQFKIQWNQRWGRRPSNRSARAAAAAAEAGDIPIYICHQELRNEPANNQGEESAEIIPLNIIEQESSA
Description: To [determine] the potential applicability of the analogs as an IAPP or pramlintide replacement in the treatment of diabetes and/or other diseases, the stability of the solutions of the analogs and thus their hormonal activity in comparison to readily aggregating IAPP was investigated. In one typical assay, aqueous solutions of IAPP, IAPP-AL, IAPP-GI, or 1:1 mixtures of the analogs with IAPP (250 μM or 1 mg/mL) in […] sodium phosphate, pH 7.4, were used at RT and incubated for 4 days. The AC activation potential of these solutions was determined at various times, e.g., at times 0, 48 h, and 96 h, by means of the AC activation assay described above (end concentration in the cells was 1 μM, corresponding to maximum activation) (FIG. 9).

[4] = ThT binding assay of the fibrile formation potential of the peptides alone; format: physicochemical; conditions: 2% HFIP, 10 mM tris, pH 7.4
Description: b) Amyloid fibriles from various protein species bind to the dye ThT and result in an increase in the maximum fluorescence emission of the […]. The ThT binding is therefore a specific test widely used for quantifying amyloid fibriles. This test was used to determine the amyloid formation potential of the analogs compared to IAPP. For this test the analogs and IAPP were incubated at a concentration of 62.5 μm [sic; μM] (2% HFIP, 10 mM tris, pH 7.4). […] aliquots from these incubations were combined with […] of a 5 μM ThT solution (in 0.1 M glycine-NaOH buffer, pH 8.5), mixed, and after excitation at 450 nm the emission from the solution was determined at 485 nm. It was shown that IAPP forms fibriles at a concentration of 625 nM.

IAPP = molecular target: T2, IAPP (Homo sapiens, UniProt P10997); assay: EM-tracked aggregation test of IAPP in 1:1 mixture with analogs; format: biochemical; conditions: IAPP 5 μM alone or 1:1 with analog, 10 mM sodium phosphate pH 7.4, 1% HFIP, 20 h
T2 construct: Natural human IAPP
T2 sequence (P10997 34-70 limits assumed): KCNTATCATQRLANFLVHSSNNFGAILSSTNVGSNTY
Description: In one typical aggregation test tracked by EM, IAPP (5 μM) was incubated alone or in the presence of one of the analogs, in a 1:1 ratio (in 10 mM sodium phosphate buffer, pH 7.4, containing 1% HFIP). After 20 h, 10 μL of the solution was applied to an EM plate, and after dyeing with 1% uranyl acetate as described in Kayed, J. Mol. Biol. (1999) 287, 781-796 was analyzed for the presence of fibriles by means of EM.

[5] = EM analysis of peptide solutions for fibriles; format: physicochemical; conditions: 5 μM, 10 mM sodium phosphate buffer pH 7.4, 1% HFIP, approximately 20 h at RT
Description: c) For EM analyses, 5-μM solutions of the analogs versus IAPP (in 10 mM sodium phosphate buffer, pH 7.4, containing 1% HFIP) were incubated for approximately 20 h at RT. 10 μL of the solutions was then applied to EM plates, and after dyeing with 1% uranyl acetate as described in Kayed, J. Mol. Biol. (1999) 287, 781-796 was analyzed for the presence of fibriles by means of EM.

[6] = 10 μM in 10 mM sodium phosphate buffer

| Molecule | pH values at which the peptide tends to aggregate [1] | onset of aggregation [2, 6] | time after which peptide was completely precipitated [2, 6] [h] | time after which peptide was completely precipitated ([2]; 100 μM in 10 mM sodium phosphate buffer) [h] | hormonal activity (AC activation potential) after storage in solution [3] | concentration at which fibriles form [4] [nM] | fibrile formation by EM (IAPP) | presence of fibriles by EM [5] |
| --- | --- | --- | --- | --- | --- | --- | --- | --- |
| CC[C@H](C)[C@H](NC(=O)[C@@H]1CCCN1C(=O)CNC(=O)[C@H](Cc1ccccc1)NC(=O)[C@H](CC(N)=O)NC(=O)[C@H](CC(N)=O)NC(=O)[C@H](CO)NC(=O)[C@H](CO)NC(=O)[C@H](Cc1c[nH]cn1)NC(=O)[C@@H](NC(=O)[C@H](CC(C)C)NC(=O)[C@H](Cc1ccccc1)NC(=O)[C@H](CC(N)=O)NC(=O)[C@H](C)NC(=O)[C@H](CC(C)C)NC(=O)[C@H](CCCNC(=N)N)NC(=O)[C@H](CCC(N)=O)NC(=O)[C@@H](NC(=O)[C@H](C)NC(=O)[C@@H]1CSSC[C@H](NC(=O)[C@@H](N)CCCCN)C(=O)N[C@@H](CC(N)=O)C(=O)N[C@@H]([C@@H](C)O)C(=O)N[C@@H](C)C(=O)N[C@@H]([C@@H](C)O)C(=O)N1)[C@@H](C)O)C(C)C)C(=O)N[C@@H](CC(C)C)C(=O)N1CCC[C@H]1C(=O)N1CCC[C@H]1C(=O)N[C@H](C(=O)N[C@@H](CC(N)=O)C(=O)N[C@H](C(=O)NCC(=O)N[C@@H](CO)C(=O)N[C@@H](CC(N)=O)C(=O)N[C@H](C(=O)N[C@@H](Cc1ccc(O)cc1)C(N)=O)[C@@H](C)O)C(C)C)[C@@H](C)O [pramlintide] | above 5 | – | – | – | – | – | – | – |
| Natural human IAPP (KCNTATCATQRLANFLVHSSNNFGAILSSTNVGSNTY; listed as Homo sapiens) [peptide hormone of 37 amino acids] | – | began immediately after the solution was prepared | 20 | 2 | may lose more than half of its original hormonal activity | 625 | composed primarily of IAPP amyloid fibriles | composed primarily of IAPP amyloid fibriles |
